One test deals with human CD33 P132L (human, UniProt P20138 18-364). Nature of the test: flow cytometry, transfected cells. On the technique in general: A flow cytometer gives signals particle by particle.
For the next test, the target named is human CD33 S131K (human, UniProt P20138 18-364). The experiment in a line: flow cytometry, transfected cells.
Another test addresses human CD33 S131M (human, UniProt P20138 18-364). Nature of the test: flow cytometry, transfected cells.
A further test concerns the target human CD33 P132K (human, UniProt P20138 18-364). The experiment in a line: flow cytometry, transfected cells.
In another test the target is human CD33 W22Q (human, UniProt P20138 18-364). The experiment in a line: flow cytometry, transfected cells.
Chain of human CD33 W22Q (P20138 18-364 W22Q limits assumed): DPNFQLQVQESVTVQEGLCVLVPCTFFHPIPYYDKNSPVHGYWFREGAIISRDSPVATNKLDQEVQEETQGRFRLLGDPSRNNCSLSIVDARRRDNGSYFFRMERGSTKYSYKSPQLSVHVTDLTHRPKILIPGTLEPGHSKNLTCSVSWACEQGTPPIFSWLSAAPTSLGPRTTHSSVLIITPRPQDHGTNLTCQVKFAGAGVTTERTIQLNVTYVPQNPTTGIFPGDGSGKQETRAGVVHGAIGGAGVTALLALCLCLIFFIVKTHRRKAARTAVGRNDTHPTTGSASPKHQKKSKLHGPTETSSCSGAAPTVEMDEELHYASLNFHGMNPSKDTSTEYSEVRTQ
The target in the next test is human CD33 P132N (human, UniProt P20138 18-364). The experiment in a line: flow cytometry, transfected cells.
Chain of human CD33 P132N (P20138 18-364 P132N limits assumed): as the sequence (P20138 18-364 W22Q limits assumed) above, with Q5W, P115N counted along it
The target in the next test is human CD33 F44D (human, UniProt P20138 18-364). Nature of the test: flow cytometry, transfected cells.
Chain of human CD33 F44D (P20138 18-364 F44D limits assumed): as the sequence (P20138 18-364 W22Q limits assumed) above, with Q5W, F27D counted along it
In another test the target is human CD33 F44P (human, UniProt P20138 18-364). Nature of the test: flow cytometry, transfected cells.
Chain of human CD33 F44P (P20138 18-364 F44P limits assumed): as the sequence (P20138 18-364 W22Q limits assumed) above, with Q5W, F27P counted along it
The target in another test is human CD33 P46I (human, UniProt P20138 18-364). Nature of the test: flow cytometry, transfected cells.
Chain of human CD33 P46I (P20138 18-364 P46I limits assumed): as the sequence (P20138 18-364 W22Q limits assumed) above, with Q5W, P29I counted along it
The next test addresses human CD33 D18R (human, UniProt P20138 19-364). The experiment in a line: flow cytometry, transfected cells.
In another test the target is human CD33 F21H (human, UniProt P20138 18-364). The experiment in a line: flow cytometry, transfected cells.
Chain of human CD33 F21H (P20138 18-364 F21H limits assumed): as the sequence (P20138 18-364 W22Q limits assumed) above, with F4H, Q5W counted along it
A further test concerns the target human CD33 P46L (human, UniProt P20138 18-364). The experiment in a line: flow cytometry, transfected cells.
A further test has as its target human CD33 P46S (human, UniProt P20138 18-364). Nature of the test: flow cytometry, transfected cells.
Another test addresses human CD33 Q24S (human, UniProt P20138 18-364). Nature of the test: flow cytometry, transfected cells.
The next test has as its target human CD33 Y129S (human, UniProt P20138 18-364). Nature of the test: flow cytometry, transfected cells.
A further test deals with human CD33 P48L (human, UniProt P20138 18-364). Nature of the test: flow cytometry, transfected cells.
Chain of human CD33 P48L (P20138 18-364 P48L limits assumed): as the sequence (P20138 18-364 W22Q limits assumed) above, with Q5W, P31L counted along it
The target in a further test is human CD33 P48M (human, UniProt P20138 18-364). Nature of the test: flow cytometry, transfected cells.
Chain of human CD33 P48M (P20138 18-364 P48M limits assumed): as the sequence (P20138 18-364 W22Q limits assumed) above, with Q5W, P31M counted along it
The next test has as its target human CD33 Y49T (human, UniProt P20138 18-364). The experiment in a line: flow cytometry, transfected cells.
A further test addresses human CD33 C212A (human, UniProt P20138 18-364). Nature of the test: alanine scan, flow cytometry.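 Also: HEK293-T cells transiently expressing single-residue alanine mutants of CD33 (alanine swapped to serine), antibody binding read by fluorescence in duplicate, background-subtracted, expressed relative to wild-type CD33.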
Another test has as its target human CD33 K52G (human, UniProt P20138 18-364). Nature of the test: flow cytometry, transfected cells.
A further test concerns the target human CD33 Y49H (human, UniProt P20138 18-364). The experiment in a line: flow cytometry, transfected cells.
The target in a further test is human CD33 K52L (human, UniProt P20138 18-364). Nature of the test: flow cytometry, transfected cells.
Chain of human CD33 K52L (P20138 18-364 K52L limits assumed): as the sequence (P20138 18-364 W22Q limits assumed) above, with Q5W, K35L counted along it
In another test the target is human CD33 Y49I (human, UniProt P20138 18-364). The experiment in a line: flow cytometry, transfected cells.
Chain of human CD33 Y49I (P20138 18-364 Y49I limits assumed): as the sequence (P20138 18-364 W22Q limits assumed) above, with Q5W, Y32I counted along it
The target in another test is human CD33 K52I (human, UniProt P20138 18-364). Nature of the test: flow cytometry, transfected cells.
Chain of human CD33 K52I (P20138 18-364 K52I limits assumed): as the sequence (P20138 18-364 W22Q limits assumed) above, with Q5W, K35I counted along it
Another test deals with human CD33 Y49R (human, UniProt P20138 18-364). Nature of the test: flow cytometry, transfected cells.
Chain of human CD33 Y49R (P20138 18-364 Y49R limits assumed): as the sequence (P20138 18-364 W22Q limits assumed) above, with Q5W, Y32R counted along it
For another test, the target named is human CD33 Y49L (human, UniProt P20138 18-364). The experiment in a line: flow cytometry, transfected cells.
Chain of human CD33 Y49L (P20138 18-364 Y49L limits assumed): as the sequence (P20138 18-364 W22Q limits assumed) above, with Q5W, Y32L counted along it
In another test the target is human CD33 P48I (human, UniProt P20138 18-364). The experiment in a line: flow cytometry, transfected cells.
Chain of human CD33 P48I (P20138 18-364 P48I limits assumed): as the sequence (P20138 18-364 W22Q limits assumed) above, with Q5W, P31I counted along it

Chain of human CD33 P46S (P20138 18-364 P46S limits assumed): as the sequence (P20138 18-364 W22Q limits assumed) above, with Q5W, P29S counted along it
Chain of human CD33 P46L (P20138 18-364 P46L limits assumed): as the sequence (P20138 18-364 W22Q limits assumed) above, with Q5W, P29L counted along it
Chain of human CD33 P132K (P20138 18-364 P132K limits assumed): as the sequence (P20138 18-364 W22Q limits assumed) above, with Q5W, P115K counted along it
Chain of human CD33 Y129S (P20138 18-364 Y129S limits assumed): as the sequence (P20138 18-364 W22Q limits assumed) above, with Q5W, Y112S counted along it
Chain of human CD33 S131K (P20138 18-364 S131K limits assumed): as the sequence (P20138 18-364 W22Q limits assumed) above, with Q5W, S114K counted along it
Chain of human CD33 Q24S (P20138 18-364 Q24S limits assumed): as the sequence (P20138 18-364 W22Q limits assumed) above, with Q5W, Q7S counted along it
Chain of human CD33 C212A (P20138 18-364 C212A limits assumed): as the sequence (P20138 18-364 W22Q limits assumed) above, with Q5W, C195A counted along it
Chain of human CD33 P132L (P20138 18-364 P132L limits assumed): as the sequence (P20138 18-364 W22Q limits assumed) above, with Q5W, P115L counted along it
Chain of human CD33 Y49H (P20138 18-364 Y49H limits assumed): as the sequence (P20138 18-364 W22Q limits assumed) above, with Q5W, Y32H counted along it
Chain of human CD33 D18R (P20138 18-364 D18R limits assumed): as the sequence (P20138 18-364 W22Q limits assumed) above, with D1R, Q5W counted along it
Chain of human CD33 Y49T (P20138 18-364 Y49T limits assumed): as the sequence (P20138 18-364 W22Q limits assumed) above, with Q5W, Y32T counted along it
Chain of human CD33 K52G (P20138 18-364 K52G limits assumed): as the sequence (P20138 18-364 W22Q limits assumed) above, with Q5W, K35G counted along it
Chain of human CD33 S131M (P20138 18-364 S131M limits assumed): as the sequence (P20138 18-364 W22Q limits assumed) above, with Q5W, S114M counted along it
Method for human CD33 C212A: An alanine scan on human CD33 was performed to the determine the residues on CD33 that are involved in binding to the antibodies investigated. […] Briefly, a mutation library of CD33 was created by high-throughput, site-directed mutagenesis. Each residue was individually mutated to alanine, with alanine codons mutated to serine. The mutant library was arrayed in 384-well microplates and transiently transfected into HEK293-T. Following transfection, cells were incubated with the indicated antibodies (IgG or Fab) at concentrations pre-determined using an independent immunofluorescence titration curve on wild type CD33. […] Binding of each antibody to each mutant clone was determined in duplicates. For each point, background fluorescence was subtracted from the raw data, which were then normalized to antibody reactivity with wild type CD33.
Critical residues for antibody binding (outlined in dark grey) were residues whose mutations led to a binding of the test Abs of less than 20%. Additional secondary residues (outlined in light grey) were identified that led to a binding of the test Abs of between 20 and 40% as compared to the wild type CD33.

B1: Refmab #6 (antibody, human IgG1, V domains shown)
VH: QVQLQQPGAEVVKPGASVKMSCKASGYTFTSYYIHWIKQTPGQGLEWVGVIYPGNDDISYNQKFQGKATLTADKSSTTAYMQLSSLTSEDSAVYYCAREVRLRYFDVWGQGTTVTVSS
VL: EIVLTQSPGSLAVSPGERVTMSCKSSQSVFFSSSQKNYLAWYQQIPGQSPRLLIYWASTRESGVPDRFTGSGSGTDFTLTISSVQPEDLAIYYCHQYLSSRTFGQGTKLEIK
Consider B1, for which the binding result in the test with human CD33 P132L, with human CD33 S131K, in the test with human CD33 S131M, in the test with human CD33 P132K, in the test with human CD33 W22Q and with human CD33 P132N was “no binding (tested: below 20%)” throughout.

B2: Refmab #3 (antibody, human IgG1, V domains shown)
VH: QVQLVQSGAEVKKPGSSVKVSCKASGYTFTDYNMHWVRQAPGQGLEWIGYIYPYNGGTGYNQKFKSKATITADESTNTAYMELSSLRSEDTAVYYCARGRPAMDYWGQGTLVTVSS
VL: DIQMTQSPSSLSASVGDRVTITCRASESVDNYGISFMNWFQQKPGKAPKLLIYAASNQGSGVPSRFSGSGSGTDFTLTISSLQPDDFATYYCQQSKEVPWTFGQGTKVEIK
Consider B2, for which the binding result with human CD33 F44D, in the test with human CD33 F44P, with human CD33 P46I, in the test with human CD33 D18R, in the test with human CD33 F21H and in the test with human CD33 P46L was “no binding (tested: below 20%)” in each case. Besides, the binding result with human CD33 P46S, with human CD33 Q24S and with human CD33 Y129S was “no binding (tested: below 20%)” each time.

B3: Refmab #4 (antibody, human IgG1, V domains shown)
VH: QVQLVQSGAEVKKPGESVKVSCKASGYTFTNYGMNWVKQAPGQGLEWMGWINTYTGEPTYADKFQGRVTMTTDTSTSTAYMEIRNLGGDDTAVYYCARWSWSDGYYVYFDYWGQGTSVTVSS
VL: DIVMTQSPDSLTVSLGERTTINCKSSQSVLDSSTNKNSLAWYQQKPGQPPKLLLSWASTRESGIPDRFSGSGSGTDFTLTIDSPQPEDSATYYCQQSAHFPITFGQGTRLEIK
Turning to B3, the binding result with human CD33 P48L, with human CD33 P48M and with human CD33 Y49T was “no binding (tested: below 20%)” throughout.

B4: Refmab #5 (antibody, V domains shown)
VH: QVQLVQSGAEVKKPGASVKVSCKASGYTFTNYDINWVRQAPGQGLEWIGWIYPGDGSTKYNEKFKAKATLTADTSTSTAYMELRSLRSDDTAVYYCASGYEDAMDYWGQGTTVTVSS
VL: DIQMTQSPSSLSASVGDRVTINCKASQDINSYLSWFQQKPGKAPKTLIYRANRLVDGVPSRFSGSGSGQDYTLTISSLQPEDFATYYCLQYDEFPLTFGGGTKVEIK
notes: Full-length format is human IgG1 Fc silent (PG-LALA); also made as Fab; The alanine scan used IgG or Fab
As to B4, the “Mean % WT Binding” value with human CD33 C212A was 28.4 % WT binding.

B5: Refmab #5 (antibody, human IgG1, V domains shown)
VH: QVQLVQSGAEVKKPGASVKVSCKASGYTFTNYDINWVRQAPGQGLEWIGWIYPGDGSTKYNEKFKAKATLTADTSTSTAYMELRSLRSDDTAVYYCASGYEDAMDYWGQGTTVTVSS
VL: DIQMTQSPSSLSASVGDRVTINCKASQDINSYLSWFQQKPGKAPKTLIYRANRLVDGVPSRFSGSGSGQDYTLTISSLQPEDFATYYCLQYDEFPLTFGGGTKVEIK
For the molecule B5, the binding result with human CD33 K52G, in the test with human CD33 Y49H, with human CD33 K52L, with human CD33 Y49I, with human CD33 K52I and with human CD33 Y49R was “no binding (tested: below 20%)” each time. The binding result with human CD33 Y49L and with human CD33 P48I was “no binding (tested: below 20%)” each time.

These data come from US20260242735A1 (UNIVERSIT T BASEL, published 2026).
